Reference: patent publication US20240156935A1 (VIB VZW, published 2024)

B1: Nb53 (VHH)
VHH: QVQLQESGGGSVQAGGSLRLSCSASGYTYSSHCTAWFRQAPGKEREALAAINSRSGTTYYADSVKGRFTISQDNTKNTAYLQMNSLKPEDTATYFCAALSFGCTGPLASLGQGTQVTVSS
B2: Nb36 (VHH)
VHH: QVQLQESGGGLVQPGGSLRLSCAASGFAFSFYWMNWVRQAPGKGLEWVSAINSGGGSTYYADSVKGRFTISRDNAKNTLYLQMNSLKPEDTAVYYCAKGIVQRGEYYGMDYWGKGTQVTVSS
B3: Nb58 (VHH)
VHH: QVQLQESGGGLVQPGGSLRLSCAASGRSISSIYAMGWYRQAPGKQRELVARLTSGGSSNYADSVKGRFTITRDNAQNTVYLQMNSLKPEDTAVYYCNAEPSRWWLDDDYWGQGTQVTVSS
notes: Llama nanobody purified by IMAC and SEC; It was HA-tagged in flow cytometry; also called anti-Q586B2 Nb
B4: Nb27 (VHH)
VHH: QVQLQESGGGLVQPGGSLRLSCTTSRSILSIYAMGWYRQAPGKQRELVAVITSGGSTYYADSVKGRFTISRDNAKNTLYLQMNSLKPEDTALYYCARGGYGTSPQPSWGQGTQVTVSS
B5: Nb39 (VHH)
VHH: QVQLQESGGGLVQPGGSLRLSCTASGSIFSGYAMGWYRQAPGKQRELVAGITSGGSTIYAGSVKGRFTISRDNAKNTVYLQMNSLKPEDTAVYYCKNGTYYSARDYWGQGTQVTVSS
B6: Nb34 (VHH)
VHH: QVQLQESGGGLVQPGGSLRLSCAASGFTFSNSPMNWVRQAPGKGLEWVSAINSGGGSTYYADSVKGRFTISRDNAKNTLYLQMNSLKPEDTAVYYCAKGGRTYYSGSYYSWGMDYWGKGTQVTVSS
B7: Nb41 (VHH)
VHH: QVQLQESGGGLVQAGGSLRLSCAASGRTFSSYAMGWFRQAPGKEREFIALISWIGGSTAYADSVKGRFTISRDNAKNTLYLQMNSLKPEDTAVYYCATDRIGRHRGPGTQVTVSS
notes: as for B3
B8: Nb32 (VHH)
VHH: QVQLQESGGGLVQPGGSLRLSCAASGFTFSAYAMSWVRQAPGKGLEWVSTIDSGGGSTYYADSVKGRFTISRDNAKKTLYLHMNSLKPEDTAVYYCAKRGYSDYARHVWGQGTQVTVSS
notes: as for B3

Experiments:
[1] = molecular target: T1, recombinant Q586B2 protein (Tb927.6.4140), produced in E. coli WK6; assay: ELISA
T1 chain: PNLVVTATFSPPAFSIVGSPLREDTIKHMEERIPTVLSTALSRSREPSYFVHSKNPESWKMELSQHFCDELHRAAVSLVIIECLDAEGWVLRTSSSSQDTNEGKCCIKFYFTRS

[2] = molecular target: T2, native Q586B2 (Tb927.6.4140) of Trypanosoma brucei brucei parasites (Trypanosoma brucei brucei); assay: flow cytometry on purified T. brucei brucei parasites, HA-tagged Nb, Alexa-488 anti-HA IgG
T2 construct: Native protein; also called native protein
T2 chain: T1 chain
Experimental: FIG. 4A) Representative flow cytometric profile of purified, fixed and permeabilized T. brucei brucei parasites plotted in an SSC-A versus FSC-A plot and subsequently gating on single cells (FSC-H versus FSC-A plot). 10⁶ parasites in presence or absence of 5 μg of HA-tagged Nb was used per condition.

| Binder | Kd [1] [nM] | binding result [2] |
| --- | --- | --- |
| B1 | 45.5 | – |
| B2 | 11.3 | – |
| B3 | 36.7 | binds |
| B4 | 52 | – |
| B5 | 49.9 | – |
| B6 | 36.7 | – |
| B7 | 14.5 | binds |
| B8 | 46.6 | binds |
